Reference: publication PMC3874162 (Nucleic Acids Research, 2013)

Tests used:
Cdc13-MOB = target: T1, Cdc13-MOB (Saccharomyces cerevisiae, UniProt P32797 344-496)
T1 sequence: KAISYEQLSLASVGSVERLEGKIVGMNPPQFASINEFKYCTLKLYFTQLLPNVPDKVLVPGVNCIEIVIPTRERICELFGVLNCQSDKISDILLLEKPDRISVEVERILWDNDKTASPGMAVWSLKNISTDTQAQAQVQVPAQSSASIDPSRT

Cdc13-MOB-DBD = target: T2, Cdc13-MOB-DBD (Saccharomyces cerevisiae, UniProt P32797 344-694); experiment: EMSA
T2 sequence: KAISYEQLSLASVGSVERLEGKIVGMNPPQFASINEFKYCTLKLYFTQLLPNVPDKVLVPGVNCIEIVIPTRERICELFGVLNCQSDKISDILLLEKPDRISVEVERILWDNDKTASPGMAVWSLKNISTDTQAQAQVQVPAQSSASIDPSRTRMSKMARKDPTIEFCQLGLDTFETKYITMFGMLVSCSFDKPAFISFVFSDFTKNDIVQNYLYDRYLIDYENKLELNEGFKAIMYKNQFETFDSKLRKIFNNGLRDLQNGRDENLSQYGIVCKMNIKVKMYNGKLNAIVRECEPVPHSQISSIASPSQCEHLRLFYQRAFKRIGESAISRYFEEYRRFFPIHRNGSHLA

Cdc13-DBD = target: T3, Cdc13-DBD (Saccharomyces cerevisiae, UniProt P32797 497-694); experiment: EMSA
T3 sequence: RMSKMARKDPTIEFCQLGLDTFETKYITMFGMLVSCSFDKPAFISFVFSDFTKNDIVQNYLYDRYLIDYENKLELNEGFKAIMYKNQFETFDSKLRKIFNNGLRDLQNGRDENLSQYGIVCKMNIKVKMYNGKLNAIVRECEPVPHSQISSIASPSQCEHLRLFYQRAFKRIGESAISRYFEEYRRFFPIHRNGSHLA

Cdc13-F539A = target: T4, Cdc13-F539A (Saccharomyces cerevisiae, UniProt P32797 1-924, F539A); experiment: EMSA
T4 sequence: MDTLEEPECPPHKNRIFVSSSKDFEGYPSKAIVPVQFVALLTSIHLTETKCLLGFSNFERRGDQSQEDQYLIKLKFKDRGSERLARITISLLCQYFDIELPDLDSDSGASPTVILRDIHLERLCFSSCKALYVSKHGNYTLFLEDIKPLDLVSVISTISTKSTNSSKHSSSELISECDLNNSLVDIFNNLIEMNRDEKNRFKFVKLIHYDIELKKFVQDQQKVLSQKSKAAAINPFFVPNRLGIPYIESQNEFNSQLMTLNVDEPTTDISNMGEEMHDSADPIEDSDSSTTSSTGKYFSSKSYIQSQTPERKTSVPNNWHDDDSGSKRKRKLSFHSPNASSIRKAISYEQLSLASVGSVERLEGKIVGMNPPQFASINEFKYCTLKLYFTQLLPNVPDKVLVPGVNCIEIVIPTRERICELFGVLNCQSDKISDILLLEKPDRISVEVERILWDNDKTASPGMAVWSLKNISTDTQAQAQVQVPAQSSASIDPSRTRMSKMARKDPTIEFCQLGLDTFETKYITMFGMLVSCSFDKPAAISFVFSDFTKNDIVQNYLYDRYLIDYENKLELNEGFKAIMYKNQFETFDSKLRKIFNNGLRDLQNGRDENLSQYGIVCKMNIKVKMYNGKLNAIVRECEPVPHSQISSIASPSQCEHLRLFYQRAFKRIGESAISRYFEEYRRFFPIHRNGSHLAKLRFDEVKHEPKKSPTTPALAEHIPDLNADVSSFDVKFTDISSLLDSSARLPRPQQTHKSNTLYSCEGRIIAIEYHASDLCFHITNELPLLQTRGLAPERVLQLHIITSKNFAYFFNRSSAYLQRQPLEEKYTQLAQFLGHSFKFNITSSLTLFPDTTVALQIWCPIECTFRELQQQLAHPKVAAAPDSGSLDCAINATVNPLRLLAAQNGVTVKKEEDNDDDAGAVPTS

B1: Tel11 (ssDNA)
DNA: GTGTGGGTGTG
In the case of B1, the binding result (Cdc13-MOB) is reported as “no binding”, the Kd (Cdc13-MOB-DBD) is reported as 2.3 ± 0.2 pM and the Kd (Cdc13-DBD) is reported as 3.4 ± 0.5 pM. The Kd (Cdc13-F539A) was 140 ± 20 pM.
